The text below walks through data of patent US20260167684A1 (MERIDA BIOSCIENCES, published 2026).

As usually defined, the Kd is the free concentration of one partner at which half of the binding sites on the other are occupied at equilibrium, for simple one-to-one binding.

Test [1] concerns the target T1, FcγRIIB (human, UniProt P31994 46-217, limits assumed).
T1 construct: Soluble protein used in SPR
T1 sequence (looked up): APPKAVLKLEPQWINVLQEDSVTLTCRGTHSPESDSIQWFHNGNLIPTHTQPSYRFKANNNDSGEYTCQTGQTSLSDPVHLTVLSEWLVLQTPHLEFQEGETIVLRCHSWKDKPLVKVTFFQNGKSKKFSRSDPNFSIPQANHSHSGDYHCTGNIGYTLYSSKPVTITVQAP
The test is described as follows: SPR; molecule captured on CM5 chip, FcγR as analyte; steady-state fit. Here is the method: (§1) Binding assays using SPR were performed to determine the binding affinity of the exemplary molecules. Molecules were captured on a CM5 SPR chip. Increasing concentrations of FcγR analyte (FcγRIIA167H, FcγRIIA167R or FcγRIIB) were subsequently injected over the captured molecules and a single dissociation performed using single cycle kinetics. The data was then analyzed using steady state analysis which is suitable for low affinity interactions. In particular, a plot of response at equilibrium against the molecule concentration was generated.

In test [2] the target is T2, FcγRIIA167R (UniProt P12318 36-218).
T2 construct: Soluble protein used in SPR
T2 sequence (looked up): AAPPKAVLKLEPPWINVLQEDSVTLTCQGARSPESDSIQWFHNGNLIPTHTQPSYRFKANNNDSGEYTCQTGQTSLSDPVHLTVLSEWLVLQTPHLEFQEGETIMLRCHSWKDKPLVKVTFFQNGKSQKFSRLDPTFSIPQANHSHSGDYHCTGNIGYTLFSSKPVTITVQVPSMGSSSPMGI
Briefly: SPR, molecule captured on the sensor chip, FcγRIIA167R as analyte. Here is the method: as §1
On the technique in general: Surface plasmon resonance follows binding to a sensor surface in real time, without labels.

In test [3] the target is T3, FcγRIIA167H (UniProt P12318 36-218).
T3 construct: Soluble protein used in SPR
T3 sequence (looked up): T2 sequence (looked up) with R132H
Briefly: SPR, molecule captured on the sensor chip, FcγRIIA167H as analyte. Here is the method:
as §1

In test [4] the target is T4, FcγRIIB expressed on cells (CHO-FcγRIIB+ cells; primary human cells that express FcγRIIB) (human, UniProt P31994 43-310).
T4 construct: whole, on cells; also called FcγRIIB-expressing CHO cells
T4 sequence (looked up): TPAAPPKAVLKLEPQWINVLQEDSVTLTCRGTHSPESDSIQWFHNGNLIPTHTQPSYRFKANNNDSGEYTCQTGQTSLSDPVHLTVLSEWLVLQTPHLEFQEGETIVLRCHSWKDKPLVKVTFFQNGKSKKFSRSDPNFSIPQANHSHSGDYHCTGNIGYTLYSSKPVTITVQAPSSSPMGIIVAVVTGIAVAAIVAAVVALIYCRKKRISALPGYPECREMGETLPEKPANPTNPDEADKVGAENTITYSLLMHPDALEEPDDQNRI
Briefly: flow cytometry, CHO cells expressing FcγRIIB, molecule pre-complexed with M22-PE at 1:1 or 4:1 molar ratio, with and without anti-FcγRIIB antibody 2B6. Here is the method:
Cells expressing FcγRIIB are seeded in a 96-well plate and stained with Live/Dead Violet Fixable Dye. Next, the pre-complexed molecule and autoantibody are incubated with the cells at various concentrations at either 4C (to assess binding) or 37C (to assess uptake). After incubation, cells are washed with PBS (binding) or acidic media to remove surface-bound complexes (uptake). Cellular fluorescence is determined by flow cytometry.
On the technique in general: A flow cytometer gives signals particle by particle.

For test [5], the target named is T1, FcγRIIB. The test is described as follows: SPR, molecule captured on the sensor chip, FcγRIIB as analyte; steady state plot of response against analyte concentration.
In a further test the target is T5, human C1q (human, UniProt P02745 23-245; P02746 28-253; P02747 29-245).
T5 construct: also called complement (C1q)
T5 sequence (P02745 23-245 limits assumed, chain 1 of 3): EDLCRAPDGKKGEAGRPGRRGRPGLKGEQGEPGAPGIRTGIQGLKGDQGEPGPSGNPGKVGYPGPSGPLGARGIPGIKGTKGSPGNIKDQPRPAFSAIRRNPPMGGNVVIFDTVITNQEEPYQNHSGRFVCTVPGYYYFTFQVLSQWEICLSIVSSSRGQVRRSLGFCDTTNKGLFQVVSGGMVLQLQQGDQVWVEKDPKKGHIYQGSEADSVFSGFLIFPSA
T5 sequence (P02746 28-253 limits assumed, chain 2 of 3): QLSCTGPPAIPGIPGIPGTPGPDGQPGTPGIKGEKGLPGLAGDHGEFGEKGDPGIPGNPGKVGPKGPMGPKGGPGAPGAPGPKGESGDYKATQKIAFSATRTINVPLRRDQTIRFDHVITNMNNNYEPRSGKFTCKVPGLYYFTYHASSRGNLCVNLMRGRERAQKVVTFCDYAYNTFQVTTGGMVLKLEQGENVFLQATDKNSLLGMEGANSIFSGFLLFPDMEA
T5 sequence (P02747 29-245 limits assumed, chain 3 of 3): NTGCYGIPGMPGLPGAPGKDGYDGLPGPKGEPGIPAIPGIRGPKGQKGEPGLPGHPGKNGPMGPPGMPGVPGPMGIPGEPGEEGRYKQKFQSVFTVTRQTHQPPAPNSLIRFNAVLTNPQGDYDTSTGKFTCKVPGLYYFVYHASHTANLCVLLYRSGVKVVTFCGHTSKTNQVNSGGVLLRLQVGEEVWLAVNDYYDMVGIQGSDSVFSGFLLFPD
Briefly: ELISA (n=2), serial dilutions of the molecule coated on the plate, human C1q at 5 µg/mL, anti-C1q HRP detection.

The target of test [6] is T3, FcγRIIA167H. The test is described as follows: SPR, molecule captured on sensor chip, FcγRIIA167H as analyte, steady-state plot of response against concentration. Here is the method: as §1
In test [7] the target is T2, FcγRIIA167R. Briefly: SPR; molecule captured on CM5 chip, FcγR as analyte; steady-state fit. Here is the method:
as §1

Changes are numbered by the printed parent chain. Numbers in names are those of the source.

Description for human C1q: An IgG4 was used as a negative control.
Varying dilutions of each exemplary molecule or one of the controls were tested for binding to C1q by ELISA where serial dilutions of molecules or controls were coated on a plate (at 0.01 μg/mL, 0.1 μg/mL, 1.0 μg/mL, 10.0 μg/mL, 100.0 μg/mL, and 1000 μg/mL) overnight at 4 C. After blocking and subsequent wash steps, human C1q at 5 μg/mL was added to the ELISA plate for 1 hour at room temperature. The plate was washed and a sheep polyclonal anti-C1q HRP antibody at 1:200 dilution was added and incubated for an additional 1 hour. Development of the ELISA plate was carried out by addition of TMB. Color development was then stopped with addition of 3N HCl. Plate absorbance was read at 450 nm using a plate ready.

B1: Variant G3 (Fc fusion)
chain 1: MGCSSPPCECHQEEDFRVTCKDIQRIPSLPPSTQTLKLIETHLRTIPSHAFSNLPNISRIYVSIDVTLQQLESHSFYNLSKVTHIEIRNTPNLTYIDPDALKELPLLKFLGIFNTGLKMFPPLTKVYSTDIFFILEITDNPYMTSIPRNAFQGLCNETLTLKLYNNGFTSVQGYAFNGTKLDAVYLNKNKYLTVIDKDAFGGVYSGPSLLDVSQTSVTALPSKGLEHLKELRARNTWTLDKTHTCPPCPAPVDFRDPLVFLFPPKPKDTLMISRTPEVTCVVVDVSPEDPEVKFNWYVDGVEVHNAKTKPQEEQYNGAYRVVSVLTVLHQDWLNGKEYKCKVSNKLAPHPIIKTISKAKGQPREPQVYTLPPCRDELTKNQVSLWCLVKGFYPSDIAVEWESNGQPENNYKTTPPVLDSDGSFFLYSKLTVDKSRWQQGNVFSCSVMHEALHNHYTQKSLSLSPGK
chain 2: DKTHTCPPCPAPVDFRDPLVFLFPPKPKDTLMISRTPEVTCVVVDVSPEDPEVKFNWYVDGVEVHNAKTKPQEEQYNGAYRVVSVLTVLHQDWLNGKEYKCKVSNKLAPHPIIKTISKAKGQPREPQVCTLPPSRDELTKNQVSLSCAVKGFYPSDIAVEWESNGQPENNYKTTPPVLDSDGSFFLVSKLTVDKSRWQQGNVFSCSVMHEALHNHYTQKSLSLSPGK
notes: Knob-in-hole heterodimer; also called TSHR260 2P2R huIgG1 Fc E233V/L234D/L235F/G236R/G237D/S239L/H268P/R292Q/S298G/T299A/A327L/L328A/A330H/E333I
Turning to B1, in the test with FcγRIIB [1], the Kd is 3.65 µM. In addition, the binding result with FcγRIIA167R [2] and with FcγRIIA167H [3] was “no binding (tested: about 2.4e-6 M)” each time.

B2: Variant E3 (Fc fusion)
chain 1: MGCSSPPCECHQEEDFRVTCKDIQRIPSLPPSTQTLKLIETHLRTIPSHAFSNLPNISRIYVSIDVTLQQLESHSFYNLSKVTHIEIRNTPNLTYIDPDALKELPLLKFLGIFNTGLKMFPPLTKVYSTDIFFILEITDNPYMTSIPRNAFQGLCNETLTLKLYNNGFTSVQGYAFNGTKLDAVYLNKNKYLTVIDKDAFGGVYSGPSLLDVSQTSVTALPSKGLEHLKELRARNTWTLDKTHTCPPCPAPELLGGDSVFLFPPKPKDTLMISRTPEVTCVVVDVSHEDPEVKFNWYVDGVEVHNAKTKPREEQYNSTYRVVSVLTVLHQDWLNGKEYKCKVSNKALPAPIEKTISKAKGQPREPQVYTLPPCRDELTKNQVSLWCLVKGFYPSDIAVEWESNGQPENNYKTTPPVLDSDGSFFLYSKLTVDKSRWQQGNVFSCSVLHEALHSHYTQKSLSLSPGK
chain 2: DKTHTCPPCPAPELLGGDSVFLFPPKPKDTLMISRTPEVTCVVVDVSHEDPEVKFNWYVDGVEVHNAKTKPREEQYNSTYRVVSVLTVLHQDWLNGKEYKCKVSNKALPAPIEKTISKAKGQPREPQVCTLPPSRDELTKNQVSLSCAVKGFYPSDIAVEWESNGQPENNYKTTPPVLDSDGSFFLVSKLTVDKSRWQQGNVFSCSVLHEALHSHYTQKSLSLSPGK
notes: Knob-in-hole heterodimer; also called TSHR260 2P2R huIgG1 Fc P238D/LS; TSHR260 2P2R huIgG1 with P238D and LS
Take B2: the values for the binding result (in test [4]; with FcγRIIB [5]; with human C1q) were “binds”, “binds” and “no binding (tested: 100 µg/mL)”, respectively.

B3: Variant G11 (Fc fusion)
chain 1: B2 chain 1 with D289E, P290G, D375E, L377M, L447M, S453N
chain 2: B2 chain 2 with D50E, P51G, D136E, L138M, L208M, S214N
notes: Knob-in-hole heterodimer; also called TSHR260 2P2R huIgG1 Fc P238D/D270E/P271G
For the molecule B3, in the test with FcγRIIA167H [6], the binding result is “no binding (tested: about 2.4e-6 M)”. Besides, the Kd in the test with FcγRIIB [1] came out at 0.987 µM; with FcγRIIA167R [7] it was 3.49 µM.
